The record followed here is patent US7638284B2, “Immunoglobulin A inducing protein and uses therefor” (The Curators of the University of Missouri, priority 2000, dated 2009).

The assay concerns IGIP transcripts. Nature of the assay: RT-PCR of IGIP transcripts in stimulated monocyte derived dendritic cells. The following applies: human monocyte derived dendritic cells. It is filed as cell-based. The procedure:
PBMCs were labeled with anti-CD14 microbeads at 4° C. for 45 minutes, washed three times in sorting buffer. Pure CD14+blood monocytes were then separated by AutoMACS, and cultured at 37° C. for 6 days in cRPMI with 1400 U/ml Leukine (rhGM-CSF) and 10 ng/ml rhIL-4. Non-adherent cells were collected at day six, and purity of dendritic cells was determined by flow cytometry.
Enriched dendritic cell cultures were stimulated with rhCD40L, Pam3CSK, Poly I:C, LPS, CpG DNA, or PMA and Ionomycin for 0, 12, 18, 24, 48, and 72 hours. Total RNA was extracted from harvested cells and treated with DNase to remove any potential contaminating DNA. IGIP was amplified by RT-PCR.
Human dendritic cells (DC) were derived from peripheral blood monocytes by culturing in GM-CSF and IL-4 for 6-7 days. IGIP transcripts were detected by RT-PCR in total RNA from approximately 10^6 monocyte derived DC (mDC) following either Toll-like receptor (TLR) binding or CD40 ligation.

B1: CD40L: rhCD40L used to stimulate dendritic cell cultures (protein, UniProt P29965 113-261, looked up)
CD40 ligand, soluble form: MQKGDQNPQIAAHVISEASSKTTSVLQWAEKGYYTMSNNLVTLENGKQLTVKRQGLYYIYAQVTFCSNREASSQAPFIASLCLKSPGRFERILLRAANTHSSAKPCGQQSIHLGGVFELQPGASVFVNVTDPSQVSHGTGFTSFGLLKL
Consider B1, for which the “loss of IGIP transcripts post stimulation” value is on record as “no longer detectable after 48 hours”, the “time after stimulation at which IGIP was detectable” value is given as “approximately 12 hours” and the “time of peak IGIP expression” value was 24 h.
